# What was measured:
# [1] = molecular target: human B7-DC on 293T cells (human) (UniProt Q9BQ51); assay: FACS, 5 µg/ml isotype control, 293T cells transfected with human B7-DC
# [2] = molecular target: human B7-H1 expressed on cells (human) (UniProt Q9NZQ7); assay: FACS, 1 µg/ml isotype control, anti-CD3-activated human T cells
# [3] = molecular target: human B7-H1 expressed on cells (human) (UniProt Q9NZQ7); assay: FACS, 5 µg/ml isotype control, 293T cells transfected with human B7-H1
# [4] = molecular target: mouse B7-H1 on J558 cells (mouse) (UniProt Q9EP73); assay: FACS, 5 µg/ml isotype control, J558 cells expressing mouse B7-H1
# Sequence of mouse B7-H1 on J558 cells (mouse) (Q9EP73 19-290): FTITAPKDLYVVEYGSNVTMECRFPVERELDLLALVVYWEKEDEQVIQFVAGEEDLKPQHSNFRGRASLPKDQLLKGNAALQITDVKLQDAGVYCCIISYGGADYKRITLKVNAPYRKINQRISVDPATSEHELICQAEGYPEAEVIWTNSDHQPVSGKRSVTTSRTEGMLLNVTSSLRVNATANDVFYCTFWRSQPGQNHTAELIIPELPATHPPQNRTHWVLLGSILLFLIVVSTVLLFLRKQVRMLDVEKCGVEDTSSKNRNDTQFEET
# [5] = molecular target: cynomolgus monkey B7-H1 expressed on cells (cynomolgus monkey) (UniProt G7PSE7); assay: FACS, 1 µg/ml isotype control, anti-CD3-activated cynomolgus monkey T cells
# Sequence of cynomolgus monkey B7-H1 expressed on cells (cynomolgus monkey) (G7PSE7 entry or part of it): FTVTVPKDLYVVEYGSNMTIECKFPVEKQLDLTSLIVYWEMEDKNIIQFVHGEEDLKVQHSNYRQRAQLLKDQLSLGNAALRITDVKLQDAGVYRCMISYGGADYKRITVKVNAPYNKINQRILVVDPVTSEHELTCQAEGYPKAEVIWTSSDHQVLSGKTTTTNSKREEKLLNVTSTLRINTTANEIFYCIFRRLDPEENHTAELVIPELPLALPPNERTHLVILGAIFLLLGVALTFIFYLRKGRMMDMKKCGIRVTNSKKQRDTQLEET
# Sequence of human B7-H1 expressed on cells (human) (Q9NZQ7 19-290): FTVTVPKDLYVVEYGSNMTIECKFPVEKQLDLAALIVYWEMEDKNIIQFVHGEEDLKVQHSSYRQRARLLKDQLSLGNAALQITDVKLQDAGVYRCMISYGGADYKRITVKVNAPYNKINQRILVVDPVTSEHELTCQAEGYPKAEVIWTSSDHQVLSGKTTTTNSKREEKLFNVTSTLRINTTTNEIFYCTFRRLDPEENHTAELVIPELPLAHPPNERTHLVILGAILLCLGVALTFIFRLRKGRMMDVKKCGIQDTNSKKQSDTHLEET
# Sequence of human B7-DC on 293T cells (human) (Q9BQ51 20-273): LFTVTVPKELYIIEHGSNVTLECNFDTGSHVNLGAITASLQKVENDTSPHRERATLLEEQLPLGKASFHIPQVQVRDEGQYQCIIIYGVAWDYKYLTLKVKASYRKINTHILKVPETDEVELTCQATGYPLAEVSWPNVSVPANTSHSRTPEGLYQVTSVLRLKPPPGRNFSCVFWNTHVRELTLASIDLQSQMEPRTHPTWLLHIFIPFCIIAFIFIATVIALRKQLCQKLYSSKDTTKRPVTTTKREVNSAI
substance,measurement,setting,value
irrelevant human IgG2 antibody,geo mean,[1],9.5
same,geo mean,[2],10
same,geo mean,[3],7.6
same,geo mean,[4],3.1
irrelevant human IgG4 antibody,geo mean,[1],8.8
same,geo mean,[2],10
same,geo mean,[3],10.7
same,geo mean,[5],17.6
same,geo mean,[4],3.2

# Source: US20130034559A1
